Source: the supplement of paper PMC10126150
± gives the standard deviation of the averaged measurements.

System: ATP
Assay: switch fluorescence ratio, 500 uM ATP over buffer (Cy3 cluster intensity, sum of 5 cycles each) (fold (ratio)); higher = stronger signal-on switching upon ATP binding; sequences stand for … in TCGTCGGCAGCGTCAGATGTGTATAAGAGACAGTTTTTTTTTTTTTTTTTTTTTTTTT…TC
Settings: aptamer strand: ATP DNA aptamer (quencher-CACCTGGGGGAGTATTGCGGAGGAAGG + anchor), 100 nM annealed; ATP concentration: 500 uM
How it was run: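 Per cluster, summed Cy3 intensity from the target cycles was divided by that from the buffer cycles to give the fluorescence ratio, then averaged per switch-domain sequence. Clusters outside 100-1000 RFU were excluded. The Cy3-labelled switching-strand clusters, on a modified Illumina MiSeq flow-cell, were annealed to 100 nM quencher-labelled ATP aptamer and imaged in selection buffer, then after 15 min with 500 uM ATP at 22 °C, for five cycles with NaOH stripping and re-annealing between them.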
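Further: ATP exposure 15 min at 22 °C before imaging.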

Sequence | switch fluorescence ratio
TGGGAAGGCA | 1 ± 0.025
TGGGAAGTCC | 1.001 ± 0.0074
TGGGAATATG | 1 ± 0.036
TGGGAATGAC | 2.01 ± 1.4
TGGGACAGTG | 0.968 ± 0.058
TGGGACATGG | 0.995 ± 0.031
TGGGACCAGG | 1.05 ± 0.03
TGGGACGTAC | 1.79 ± 0.15
TGGGACTTGG | 1.01 ± 0.018
TGGGACTTTG | 1.0328 ± 0.001
TGGGAGAGGT | 0.996 ± 0.02
TGGGAGAGTC | 0.989 ± 0.047
TGGGAGGCAA | 1.16 ± 0.021
TGGGAGGGGA | 1.03 ± 0.035
TGGGAGGTTC | 1.03 ± 0.02
TGGGAGTTGG | 1.03 ± 0.012
TGGGATAAAG | 0.9923 ± 0.0029
TGGGATATGG | 0.996 ± 0.029
TGGGATCGCT | 1.038 ± 0.0056
TGGGATCTGG | 0.997 ± 0.037
TGGGATGCAG | 1.01 ± 0.065
TGGGATTATT | 1.02 ± 0.019

Sequence | switch fluorescence ratio
TGGGATTGGG | 0.974 ± 0.013
TGGGATTGTT | 1 ± 0.035
TGGGCAACCG | 1.02 ± 0.065
TGGGCAGGCT | 0.998 ± 0.044
TGGGCATATG | 0.993 ± 0.014
TGGGCATTAT | 1.04 ± 0.07
TGGGCATTTT | 0.987 ± 0.025
TGGGCCAGTG | 1.05 ± 0.014
TGGGCCGCCC | 1.07 ± 0.12
TGGGCCGGGT | 1.03 ± 0.055
TGGGCGAAAA | 0.974 ± 0.045
TGGGCGACCG | 0.99 ± 0.021
TGGGCGGGGT | 1.02 ± 0.031
TGGGCGGGTT | 0.989 ± 0.032
TGGGCGGTGT | 0.992 ± 0.037
TGGGCGTAAG | 1.02 ± 0.027
TGGGCGTCGG | 0.999 ± 0.032
TGGGCTACTC | 1.1 ± 0.044
TGGGCTAGAT | 0.998 ± 0.053
TGGGCTGGTA | 0.972 ± 0.025
TGGGCTTAGT | 0.992 ± 0.012
TGGGGAAAGG | 0.978 ± 0.034

Sequence | switch fluorescence ratio
TGGGGAAAGT | 1.03 ± 0.036
TGGGGAACCT | 0.96 ± 0.032
TGGGGAATAG | 1.04 ± 0.057
TGGGGACAAA | 0.986 ± 0.019
TGGGGACGGA | 1.02 ± 0.054
TGGGGAGAGG | 1.02 ± 0.037
TGGGGAGCCT | 1.03 ± 0.041
TGGGGAGGAA | 1 ± 0.011
TGGGGATATG | 0.997 ± 0.019
TGGGGATCCG | 1.016 ± 0.0095
TGGGGATCGC | 0.983 ± 0.034
TGGGGATCTC | 1.01 ± 0.024
TGGGGATGGA | 0.998 ± 0.02
TGGGGATGTT | 1.01 ± 0.049
TGGGGATTCT | 0.976 ± 0.0054
TGGGGCAGGG | 1.44 ± 0.62
TGGGGCCGGG | 1.01 ± 0.016
TGGGGCGC | 1.01 ± 0.097
TGGGGCGCAT | 1.09 ± 0.064
TGGGGCGCTG | 0.981 ± 0.011
TGGGGGAACG | 0.984 ± 0.026
TGGGGGACGA | 0.954 ± 0.032

Sequence | switch fluorescence ratio
TGGGGGAGAG | 1.01 ± 0.03
TGGGGGAGCT | 1.05 ± 0.11
TGGGGGAGGA | 0.979 ± 0.02
TGGGGGATGT | 1.01 ± 0.013
TGGGGGATTC | 1.03 ± 0.067
TGGGGGCAGC | 1.02 ± 0.025
TGGGGGCAGG | 1.01 ± 0.047
TGGGGGCATA | 1.09 ± 0.1
TGGGGGCATT | 1.01 ± 0.033
TGGGGGCCCG | 0.995 ± 0.047
TGGGGGCCGT | 1.02 ± 0.14
TGGGGGCGGG | 1 ± 0.033
TGGGGGCGTC | 1.02 ± 0.036
TGGGGGCTAG | 0.997 ± 0.037
TGGGGGCTGT | 0.998 ± 0.016
TGGGGGCTT | 1.03 ± 0.014
TGGGGGGAGA | 1.01 ± 0.045
TGGGGGGCAC | 0.986 ± 0.043
TGGGGGGGTG | 1.01 ± 0.033
